Assay results published in the supplement of paper PMC9170038.

Tested on: K4 kissing-loop RNA reporter
Test: apparent KD of K4 kissing-loop reporter; higher = weaker reporter binding
Conditions: Eterna round: R107
Experimental: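 RNA-MaP round R107: designed RNA switches with theophylline, tryptophan, arginine or FMN aptamers are transcribed on-chip within common flanks. They are titrated with a labelled K4 kissing-loop RNA reporter in RNA-MaP buffer (100 mM Tris pH 7.5, 80 mM KCl, 4 mM MgCl2), without ligand or with the indicated ligand. Median apparent KD per design.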

[1] = input ligand: theophylline 20 uM
[2] = input ligand: tryptophan 2.4 mM
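Further: bound reporter read as fluorescence of individual clusters on recovered sequencing chips by microscopy, with normalized cluster intensities fitted with a binding model.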

| Sequence | apparent KD of K4 kissing-loop reporter (input ligand: FMN 200 uM) [nM] | apparent KD of K4 kissing-loop reporter (input ligand: arginine 13.2 mM) [nM] | apparent KD of K4 kissing-loop reporter (input ligand: none) [nM] | apparent KD of K4 kissing-loop reporter [1] [nM] | apparent KD of K4 kissing-loop reporter [2] [nM] |
| --- | --- | --- | --- | --- | --- |
| GCGCGGGAGUGAUGUUCCAAGUGGUGUUAGCGAGGACCGGUACGGCCGCCACUCGUUACGGCCGGGCCGUAGGAUACACUGGCGC [Same State - Tryptophan A (Freestyle 17)] | 308 | 218 | 286 | 290 | 240 |
| GCGCGUCAUGUCAGCGGUGACACUGUCGAUACCAGCGCCGCAAGGCGCCCUUGGCAGCGACGUGCUGGAGUGAUGUUCCAGCGUC [#2 Exclusion - Theophylline A Attempt #22 (HarryS)] | 159 | 113 | 145 | 142 | 140 |
| GCGCGUCAUGUCAGCGGUGACUACGUCGAUACCAGCAGGGAAACCUGCCCUUGGCAGCGACGCGCUGGAGUGAUGUUCCGACGGA [#2 Exclusion - Theophylline A Attempt #6 (HarryS)] | 434 | 431 | 544 | 854 | 442 |
| GCGCGUCAUGUCGGCGGUGACUACGCCGAUACCAGCCGGGAAACCGGCCCUUGGCAGCGGCGCGCCGGAGUGAUGUUCCGACAGA [#2 Exclusion - Theophylline A Attempt #3 (HarryS)] | 126 | 205 | 190 | 359 | 109 |
| GCGGGCCCUGGAGGAUAUGAGUCGAGUGAUGUUCGGCGGUCCAUGCCGAUGCGGCGUUAUGCCCUUUUAGAAGGCCAGGGCCCGC [#2 Exclusion - FMN B Attempt #7 (HarryS)] | 392 | 236 | 310 | 243 | 277 |
| GCGUCAUCGAAAGGAUAUGGAGUAGUGAUGUUGAUCCAUAUGCUCACGCAUAGCCGAGAACAUCGACCAGAAGGUUCAAGAACUG [theeternabot_exclusion_KL_FMN_B_41] | 672 | 509 | 757 | 520 | 459 |
| GCUAAGGAGUGAUGUUCCAAGUGAUGUUAACGAGGACCGGUACGGCCGCCACUCGAUACGGCCGGACCGUAAGAUAAACUACAGC [Same State - Tryptophan A (Freestyle 6)] | 206 | 182 | 213 | 279 | 194 |
| GCUAUGGUAGGAAGGAGCGCUUAUUCAUUAAUAAGAGUGAUGUUCGAUAAUGAAUAUUUAUAGCAGGUAGGUCGCCUACUAUAGC [Arginine B K4 2] | 300 | 223 | 230 | 206 | 237 |
| GCUAUGGUAGGAAGGAGCGCUUAUUUAUUUUUAAGAGUGAUGUUCGUUAGUAGAUAGUUAAAGCAGGUAGGUCGCCUACUAUAGC [Arginine B K4 15] | 146 | 177 | 171 | 161 | 100 |
| GCUAUGGUAGGAAGGAGCGCUUGUUCGGUCAUAUGAGUGAUGUUCGAGACUGAGCAUUUAUAGCAGGUAGGUCGCCUACUAUAGC [Arginine B K4 10] | 164 | 179 | 181 | 160 | 175 |
| GCUCGUCAUGUCAGCGGUGGUACUGUCGAUACCAGUGCCGUAAGGCGCCCUUGGCAGCGAUGCGCUGGAGUGAUGUUCCAGCGUU [#2 Exclusion - Theophylline A Attempt #32 (HarryS)] | 110 | 92.9 | 116 | 120 | 119 |
| GGAGAGCGGAACGAUACCAGCUGCGGCACGCACCGGAAGUUAAGCCAGUGAUGUUGGCGGAGCCCUUGGCAGCGUGCGCGCGUCC [Abeusma] | 122 | 93.3 | 104 | 145 | 105 |
| GGAGUUACCUGGGAUACCAGCCGGAGGCCCAGAGCUCGGAGUGAUGUUCUGGGAUGUUUCGGCCCUUGGCAGCUCUGGGUCUCCG [#2 Exclusion - Theophylline B Attempt #5 (HarryS)] | 1050 | 627 | 806 | 433 | 1410 |
| GGAGUUACCUGGGAUACCAGUCGGAGUCUCAGAGCACGGAGUGAUGUUCUGGGAUGUUUCGGCCCUUGGCAGCUCUGGGACUCCA [#2 Exclusion - Theophylline B Attempt #15 (HarryS)] | 317 | 209 | 268 | 219 | 228 |
| GGAUAGGAUAGAGGAUAUGGAAAACACAGAAGUGACUUGUUGUGUUUAUCCAUAGGGAGUGAUGUUCCAGAAGGCUGUCCUAUCG [MatMod 22 - Jieux - Exclusion - FMN B] | 333 | 206 | 206 | 230 | 154 |
| GGAUCCACCAGUGAUGUUGGAGAAAACUCUAAGGAUAUGACGAAAGUCAGAAGGUGGUAGACUGGACAAAGUCCGGUGGGAUCCA [FmnA10 U30+G78] | 264 | 229 | 350 | 406 | 317 |

| Sequence | apparent KD of K4 kissing-loop reporter (input ligand: FMN 200 uM) [nM] | apparent KD of K4 kissing-loop reporter (input ligand: arginine 13.2 mM) [nM] | apparent KD of K4 kissing-loop reporter (input ligand: none) [nM] | apparent KD of K4 kissing-loop reporter [1] [nM] | apparent KD of K4 kissing-loop reporter [2] [nM] |
| --- | --- | --- | --- | --- | --- |
| GGAUUGCGUUCGGCCGCCACUAGACUACAUUCCACGCCCGACCCGUUUUUAAGUGAUGUUUAAACUAGGACCGGGAACCGAUUUC [theeternabot_exclusion_KL_Trp_B_33] | 435 | 291 | 395 | 388 |  |
| GGAUUUGAGUGAUGUUUAAAACGAGUGUCCAAGGAUAUUGCCCAAACAAGAAGGUGGGCAUGCUUUUGCGAUAAUCAACGGAGAC [theeternabot_exclusion_KL_FMN_A_9] | 408 | 666 | 451 | 606 | 291 |
| GGCAGUGAUGUUGCCAGUGGCAGAUGAGAAGGAGCGUGGUGAGACACAGGUAGGUCGCUCAUUGAAAUUGCUGUCACUAAAAUGC [#5] | 289 | 322 | 266 | 234 | 215 |
| GGCAGUGAUGUUGCCUAAGCAACGCAUGCAGAGGAUAUUCGUUCGGGAAGAAGGCUGCAGCGUUCUCUCGCGAGUGAUGUUCGCG [Same State FMN A GF 23] | 182 | 137 | 165 | 165 | 162 |
| GGCGGCUGCGCGCAAGCGCAGCCGGCCGAUACCAGCGCGACGGCGCGCCCUUGGCAGCGGCGCCGAGUGAUGUUCGGCCUGCCGG [#2 Same State - Theophylline A Attempt #19 (HarryS)] | 433 | 380 | 738 | 418 | 416 |
| GGGAGAAGAGCGGCCGCCACUCAGACAGCAGCAGAAUAUAGUGAUGUUAUAUAGGAAAGGCGGAGGAGGACCGGGCUUAAGAGGG [#20 K4 Tryptophan B Same State] | 308 | 303 | 278 | 362 | 316 |
| GGGAGAGCGCGAAGGAGCGCCCUGACAGGUUGCUGCCGUGGGCAGUGAUGUUGCUCAGUCCGGCAGGUAGGUCGCGUGCUCUCCC | 178 | 148 | 192 | 200 | 177 |
| GGGAGUAGUGCGGCCGCCACUGAGAAAGAAGAAGAAUAUAGUGAUGUUAUGUAGGAAAGGAAGAACAGGACCGGGCAUUAGAUUU [SSTRyptB.G] | 455 | 432 | 477 | 387 | 270 |
| GGGCCUGGGCCCGGAAGGGCCUGGGCCCGUUAGGAUAUGACGUGAUUCAGAAGGGAUGGGUGGAGUGAUGUUCCACCCGAGAGGG [#2 Same State - FMN A Attempt #25 (HarryS)] | 85.9 | 90.5 | 81.5 | 73.1 | 63.3 |
| GGGCUGGUGCUAGGAUAUGCGAUGAAUGCUCAGAAAACCUUGAGUCCGCAGUGAUGUUGCGGCACCGCAGAAGGAGCUAAGGCUC [Reorinraor] | 129 | 138 | 111 | 171 | 127 |
| GGGUGGCAGACGGCCGCCACUCUUAGCAGCCAGUGAGUGAUGUUCGUGGCGGAGUGAUGUUCCUAGAGGACCGGGUUUGUUGUUC [Same State Tryptophan B GF 20] | 413 | 259 | 478 | 412 | 318 |
| GGGUGGCAGGCGGCCGCCACUCUUAGCAGCCAGUGAGUGAUGUUCGUGGCGGAAGAAUGUUCGUAGAGGACCGGGUUUGUUGUUC [Same State Tryptophan B GF 21] | 262 | 180 | 257 | 254 | 216 |
| GGUAGCAUGGCGGCCGCCACUCGGACGACAUAGCACAUGUCGACCAGUGAUGUUGGUUCAAACACGAGGACCGGGCCAUGCUACC | 724 | 715 | 798 | 629 | 135 |
| GGUAGCAUGGCGGCCGCCACUUAUGUUCACAUAGUGAUGUUAUGUUCACAUUUAUGGCCCUGCUUAAGGACCGGGCCAUGCUACC | 118 | 90.3 | 105 | 82.1 | 272 |
| GGUAGCAUGGCGGCCGCCACUUUGCACCUUUUCUUUUCUUUUGGUGCUUCACGAGUGAUGUUCGUAAGGACCGGGCCAUGCUACC | 259 | 217 | 261 | 213 | 195 |
